The values that follow come from PMC10267556 (Nature Communications, 2023).

Numbering of substitutions follows the chain as printed.

What all share (test): SPR
Conditions in all cases: both partners purified

The target in one assay is T1, RBD (BA.4/5) (SARS-CoV-2, Omicron BA.4/5, strain).
T1 construct: source: bought: Sino Biological

A further assay has as its target T2, Spike (BA.4/5) (SARS-CoV-2, Omicron BA.4/5, strain).
T2 construct: source: bought: Sino Biological

A further assay deals with T3, Spike (BA.1) (SARS-CoV-2, Omicron BA.1, strain).
T3 construct: source: bought: Sino Biological

The target in the next assay is T4, RBD (BA.1) (SARS-CoV-2 Omicron BA.1, strain).
T4 construct: source: bought: Sino Biological

For another assay, the target named is T5, Spike (XBB) (SARS-CoV-2, Omicron XBB, strain).
T5 construct: source: bought: Sino Biological

Another assay deals with T6, Spike (XBB.1.5) (SARS-CoV-2, Omicron XBB.1.5, strain).
T6 construct: source: bought: Sino Biological

For assay [1], the target named is SARS-CoV-2 Omicron XBB.1.5 spike protein (SARS-CoV-2 Omicron XBB.1.5, strain).
Assay [2] deals with SARS-CoV-2 Omicron XBB spike protein (SARS-CoV-2 Omicron XBB, strain).

B1: TH003 (antibody, V domains shown)
VH: EVRLLESGGGLVQPGGSLRLSCAASGFTFNDYAMSWVRQAPGEGLEWVSTISYSGGSTYYADSVKGRFTISRDNSKNMLYLQMNSLRAEDTALYYCANGVATADWYFDLWGRGTLVTVSS
VL: QSALTQPRSVSGSPGQSVTISCTGTSSDVGGYNYVSWFQHHPGKAPKLMIYDVTDRPSGVPDRFSGSKSGNTASLTISGLQAEDAADYYCCSYAGTYTVFGGGTKLTVL
notes: IgG1 (D2:p3)
Regarding B1, the Kd worked out at 0.484 nM with RBD (BA.4/5), 1.59 nM in the assay with Spike (BA.4/5), 2.55 nM with Spike (BA.1) and 1.29 nM with RBD (BA.1).

B2: TH027 (antibody, V domains shown)
VH: QITLKESGLTLVRPTQTLTLTCTFSGFSLINSGVGVGWIRQPPGKALEWLALIYWDDDKRYNPSLRSRLTISKATSKNQVVLTMTNMDPVDTATYYCTHRGPGHNTPIYFEFWGQGALVTVSS
VL: QSVLTQSPSASGTPGQRVTISCSGSRSNIGSNFVYWFHQLPGTAPKLLIHSNDQRPSGVPDRFSGSNSGTSASLAISGLRSEDEADYYCAAWDDSLSSWVFGGGTKLTVL
notes: IgG1 (D2:p3)
As to B2, the Kd was 0.752 nM with RBD (BA.4/5), 1.86 nM with Spike (BA.4/5), 7.06 nM with Spike (BA.1) and 0.838 nM in the assay with RBD (BA.1).

B3: TH132 (antibody, V domains shown)
VH: EVQLVESGGGLVQPGGSLRLSCAASGITVSRNYMSWVRQAPGKGLEWVSVMFAGGSTFYADSVKGRFTISRDNSKNTLYLQMNSLRAEDTAVYYCARDLGVVGATDYWGQGTLVTVSS
VL: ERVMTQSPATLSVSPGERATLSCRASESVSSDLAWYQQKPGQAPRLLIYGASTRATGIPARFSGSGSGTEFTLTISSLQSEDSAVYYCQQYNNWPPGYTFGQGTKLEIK
notes: IgG1 (D2:p3)
Regarding B3, the Kd stood at 1.34 nM in the assay with Spike (XBB); 0.484 nM with RBD (BA.4/5); 0.00171 nM with Spike (BA.4/5); 1.26 nM in the assay with Spike (BA.1); 1.09 nM with Spike (XBB.1.5); 0.726 nM with RBD (BA.1).

B4: TH132 monoclonal antibody (IgG) (antibody, V domains shown)
VH: B3 VH
VL: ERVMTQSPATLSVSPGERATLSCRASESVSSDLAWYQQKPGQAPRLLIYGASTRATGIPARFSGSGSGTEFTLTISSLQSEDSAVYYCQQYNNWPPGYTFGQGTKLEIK
notes: copies: 2 + 2
As to B4, the Kd in assay [1] and in assay [2] was about 1 nM each time.

B5: TH281 (antibody, V domains shown)
VH: B3 VH with G26E
VL: not shown
notes: IgG1 (D2:p3)
On to B5, for which the results for the Kd with RBD (BA.4/5), with Spike (BA.1) and in the assay with RBD (BA.1) were 0.00781 nM, 0.517 nM and 0.119 nM, respectively.

B6: TH236 (antibody, V domains shown)
VH: QVQLVESGGGLVKPGGSLRLSCAASGFMISDSYMNWIRQPPGKGLEWVSYISSNGYAIYYGDSVKGRFTISRDNAKNFLYLQMNSLRVEDTAVYYCAREQPGGYYDSSGYRLDPWGQGILVTVSS
VL: QSALTQPASVSGSPGQSITISCTGTSSDVGGYNYVSWYQQHPGKAPKLMIYDVSNRPSGVSNRFSGSKSGNTASLTISGLQAEDEADYYCSSYTSSSTLYVFGTGTKVTVL
notes: IgG1 (D2:p3)
For the molecule B6, the Kd with RBD (BA.4/5) was determined as 0.621 nM; with Spike (BA.4/5), 0.602 nM; with Spike (BA.1) it was 0.0867 nM; in the assay with RBD (BA.1), 0.3 nM.

B7: TH272 (antibody, V domains shown)
VH: QITLKESGPTLVKPTQTLTLTCTFSGFSLSTGGVSVGWIRQPPGKALEWLALIYWDDDKRYSPSLESRLTITKDTSKNLVVLTLTNMDPVDTATYYCAHKTIPTIFDYWGQGTLVTVSS
VL: QSALTQPASVSGSPGQSITISCTATSSDVGAYQYVSWYQQYPGKAPKLMIYEVSKRPSGVSNRFSGSKSGNTASLTISGLQAEDDAYYYCNSYTTSSVVFGGGTKLTVL
notes: IgG1 (D2:p3)
As to B7, the Kd is 0.045 nM with RBD (BA.4/5), 0.000976 nM in the assay with Spike (BA.4/5), 1.33 nM with Spike (BA.1) and 0.296 nM in the assay with RBD (BA.1).
